Data reported in patent US20100150941A1 (DSO NATIONAL LABORATORIES, published 2010).

B1: VN04-3 (antibody, V domains shown)
VH: QVQLQESGPDLVKPGASVMISCKASGYSFTYYYMHWVKQSHGKTLEWIGRIYPYNGDTNYNRRFKDKAILTVDESSSTAYMELRSLTSEDSAVYFCARDANYEGDWYFDVWGQGTTVTVSS
VL: DIQMTQSPSSFSVSLGDRVTITCKASEDIYNRVAWYQQKPGNAPRLLMSDATSLGAGVPSRFSGSGSGKDHTLSITSLQTEDVATYYCQQYWNTRTFGGGTKLEIKR
B2: VN04-3-huG1 (antibody, V domains shown)
VH: B1 VH
VL: B1 VL

Key:
[1] = target: T1, hemagglutinin of A/Vietnam/1203/04 (H5N1) on virus (influenza A virus H5N1, …, UniProt Q80A26 6-557); assay: inferred from HI and virus neutralization assays
[2] = target: T1, hemagglutinin of A/Vietnam/1203/04 …; assay: HI assay

| Binder | binding result [1] | binding result [2] |
| --- | --- | --- |
| B1 | binds |  |
| B2 |  | binds |
